{"source": "paper doi:10.1101/2021.12.22.473891", "about": "(bioRxiv, 2021)", "binders": {"B1": {"name": "human dock II domain, full-length variant (RPA1^1060-1155) with C-terminal His-MBP-tag (domain or fragment)", "chain": "ADPKKALHHFRAIKKWQSKHPNTLLRRGAFLSYSQKIQEAVKALKLESENRNGRSPGTQEMLRMWYELDEESRRKYQKKAAACPDPSLSVWRPDIY"}}, "molecular_target": "recombinant human Top2a ΔC (1-1217), lacking the unstructured C-terminal domain (human, UniProt P11388 1-1217)", "sequence (P11388 1-1217, stated change not applied)": "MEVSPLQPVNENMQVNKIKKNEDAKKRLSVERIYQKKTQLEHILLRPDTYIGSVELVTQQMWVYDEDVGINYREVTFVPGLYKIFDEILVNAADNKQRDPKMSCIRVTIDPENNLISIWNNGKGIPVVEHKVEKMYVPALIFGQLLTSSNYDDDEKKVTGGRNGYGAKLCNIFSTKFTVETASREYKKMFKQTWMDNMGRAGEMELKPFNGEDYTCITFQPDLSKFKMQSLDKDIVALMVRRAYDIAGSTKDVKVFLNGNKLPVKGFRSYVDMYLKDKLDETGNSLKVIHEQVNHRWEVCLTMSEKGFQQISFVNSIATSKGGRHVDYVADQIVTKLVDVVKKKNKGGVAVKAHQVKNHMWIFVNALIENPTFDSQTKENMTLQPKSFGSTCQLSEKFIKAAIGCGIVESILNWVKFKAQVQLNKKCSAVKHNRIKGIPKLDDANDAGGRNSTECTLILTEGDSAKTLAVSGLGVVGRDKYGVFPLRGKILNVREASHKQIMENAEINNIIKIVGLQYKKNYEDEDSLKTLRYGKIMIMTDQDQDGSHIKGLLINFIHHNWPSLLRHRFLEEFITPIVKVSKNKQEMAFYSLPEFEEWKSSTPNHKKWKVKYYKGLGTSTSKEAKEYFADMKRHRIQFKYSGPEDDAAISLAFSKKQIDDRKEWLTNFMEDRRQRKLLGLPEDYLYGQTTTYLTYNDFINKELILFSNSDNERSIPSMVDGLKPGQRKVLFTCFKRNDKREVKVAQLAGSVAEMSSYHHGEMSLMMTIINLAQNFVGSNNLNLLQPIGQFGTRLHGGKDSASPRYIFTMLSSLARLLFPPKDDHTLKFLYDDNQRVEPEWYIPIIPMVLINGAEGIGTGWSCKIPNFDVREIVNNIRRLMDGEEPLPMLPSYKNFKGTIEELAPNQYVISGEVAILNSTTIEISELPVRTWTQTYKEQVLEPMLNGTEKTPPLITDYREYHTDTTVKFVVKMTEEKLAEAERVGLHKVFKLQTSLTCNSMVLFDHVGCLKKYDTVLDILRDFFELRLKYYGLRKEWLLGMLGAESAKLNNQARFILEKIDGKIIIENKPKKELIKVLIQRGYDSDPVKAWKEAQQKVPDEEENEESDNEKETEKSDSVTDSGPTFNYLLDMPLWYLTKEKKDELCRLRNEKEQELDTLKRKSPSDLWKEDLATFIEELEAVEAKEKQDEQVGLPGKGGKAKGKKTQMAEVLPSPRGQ", "assay": "native gel or EMSA", "data": [{"binder": "B1", "values": [{"measurement": "binding result", "result": "binds"}]}]}
